Values joined by “and” are separate entries in the source; they are usually repeats but may differ in a detail not shown here. Equal values may be shown once.
B1: wild-type phospholamban (natural protein, dog, UniProt P61012 1-52, looked up)
chain: MDKVQYLTRSAIRRASTIEMPQQARQNLQNLFINFCLILICLLLICIIVMLL
B2: C41L-PLB (natural protein, dog, UniProt P61012 1-52, looked up)
chain: MDKVQYLTRSAIRRASTIEMPQQARQNLQNLFINFCLILILLLLICIIVMLL
B3: I38A mutant of C41L-PLB (natural protein, dog, UniProt P61012 1-52, looked up)
chain: MDKVQYLTRSAIRRASTIEMPQQARQNLQNLFINFCLALILLLLICIIVMLL
B4: L39A mutant of C41L-PLB (natural protein, dog, UniProt P61012 1-52, looked up)
chain: MDKVQYLTRSAIRRASTIEMPQQARQNLQNLFINFCLIAILLLLICIIVMLL
B5: L42A mutant of C41L-PLB (natural protein, dog, UniProt P61012 1-52, looked up)
chain: MDKVQYLTRSAIRRASTIEMPQQARQNLQNLFINFCLILILALLICIIVMLL
B6: I48A mutant of C41L-PLB (natural protein, dog, UniProt P61012 1-52, looked up)
chain: MDKVQYLTRSAIRRASTIEMPQQARQNLQNLFINFCLILILLLLICIAVMLL

Key:
[1] = biological target: the molecule itself; assay: SDS-PAGE oligomerization assay
[2] = biological target: the molecule itself; assay: SDS-PAGE oligomerization assay with immunoblot
[3] = biological target: the molecule itself; assay: SDS-PAGE oligomerization assay; remark: listed apart in the source

Row | Protein | stoichiometry N [1] | stoichiometry N [2] | stoichiometry N [3]
1 | B1 | > 6 | 2 and 4 and ~6 | 5
2 | B2 | – | 4 | –
3 | B3 | – | 4 | –
4 | B4 | – | 4 | –
5 | B5 | – | 4 | –
6 | B6 | – | 5 | –
